Results reported in patent publication US20220017620A1.

Biological target: B7-H3 on Hs-700T pancreatic cancer cells (UniProt Q5ZPR3)
Experiment: cell-based ELISA on fixed Hs-700T cells

| EC50 (read off the curve) | Binder |
| --- | --- |
| 30 ng/mL | P1D1 full-length IgG1 antibody (antibody, V domains shown) VH: QVQLVQSGAEVKKPGESLKISCKGSGYSFTSYWIGWVRQMPGKGLEWMGIIYPGDSDTRYSPSFQGQVTISADKSISTAYLQWSSLKASDTAMYYCARRSVAGLDYWGQGTLVTVSS VL: KTVVTQPPSASGTPGQRVTISCSGSSSNIGSKYVYWYQQLPGTAPRLLIYRNNQRPSGVPDRFSGSKSGTSASLAISGLRSEDESDYYCASWDDRLKGYAFGTGTKVTVL |
| 30 ng/mL | P1G2 full-length IgG1 antibody (antibody, V domains shown) VH: QVQLQQSGAEVKKPGSSVKVSCKASGGTFSSYAISWVRQAPGQGLEWMGRIIPILGIANYAQKFQGRVTITADKSTSTAYMELSSLRSEDTAVYYCAVNYYDSSGYYSDYWGQGTLVTVSS VL: SYELTQPPSASGSPGQSVTISCTGTSSDVGGYNYVSWYQQHPGKAPRLMIYGVSQRPSGVPDRFSGSKSGNTASLTVSGLQAEDEADYYCSSYANNNYVFGTGTKVTVL |
